Laboratory results as given in patent publication US20250304643A1 (BAINAN BIOTECH, published 2025).
*1 amine or outer side, *2 acyl side, *3 side chain or, on linkers, in order; H or OH if unused. Where no end group is shown, it is not given here. Side-chain parts run from the residue outwards. [ ]: non-standard residue; d: D form. The star is where a group is joined. C16 diacid = O=C(O)CCCCCCCCCCCCCCC(=O)*; γGlu = O=C(O)[C@H](CCC(=O)[*:2])N[*:1]; Palmitoyl = CCCCCCCCCCCCCCCC(=O)*; Decanoyl = CCCCCCCCCC(=O)*; Aib = CC(C)(N)C(=O)O

T1: human glucagon-like peptide-2 receptor (human, UniProt O95838 1-553)
T1 sequence (looked up): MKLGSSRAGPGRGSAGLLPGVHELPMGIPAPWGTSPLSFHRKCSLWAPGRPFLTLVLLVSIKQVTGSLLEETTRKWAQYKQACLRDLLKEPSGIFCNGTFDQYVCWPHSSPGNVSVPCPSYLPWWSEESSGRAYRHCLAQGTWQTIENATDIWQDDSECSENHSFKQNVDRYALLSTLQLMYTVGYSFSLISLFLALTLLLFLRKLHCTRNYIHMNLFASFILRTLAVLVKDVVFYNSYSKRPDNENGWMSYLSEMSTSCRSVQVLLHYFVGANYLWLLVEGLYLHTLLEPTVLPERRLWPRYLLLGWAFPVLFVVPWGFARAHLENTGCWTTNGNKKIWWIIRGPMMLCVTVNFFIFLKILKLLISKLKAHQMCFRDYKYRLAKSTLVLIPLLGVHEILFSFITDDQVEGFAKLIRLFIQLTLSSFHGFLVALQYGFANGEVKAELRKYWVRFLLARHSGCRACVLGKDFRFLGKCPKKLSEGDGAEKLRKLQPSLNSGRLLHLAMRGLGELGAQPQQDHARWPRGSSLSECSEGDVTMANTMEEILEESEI

T2: human glucose-dependent insulinotropic polypeptide receptor (human, UniProt P48546 22-466)
T2 sequence (looked up): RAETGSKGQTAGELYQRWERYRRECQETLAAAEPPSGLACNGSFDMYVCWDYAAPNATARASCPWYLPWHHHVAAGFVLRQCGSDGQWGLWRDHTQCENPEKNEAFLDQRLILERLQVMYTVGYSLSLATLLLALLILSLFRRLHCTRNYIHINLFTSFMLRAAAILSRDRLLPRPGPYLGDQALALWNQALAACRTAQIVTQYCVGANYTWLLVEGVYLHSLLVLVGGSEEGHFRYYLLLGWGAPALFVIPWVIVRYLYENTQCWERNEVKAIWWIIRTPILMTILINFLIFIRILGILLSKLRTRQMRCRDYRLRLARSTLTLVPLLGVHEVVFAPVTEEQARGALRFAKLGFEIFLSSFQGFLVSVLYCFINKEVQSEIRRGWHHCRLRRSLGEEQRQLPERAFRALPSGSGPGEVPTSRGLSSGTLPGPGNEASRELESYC

B1: Compound no. 30 (peptide)
peptide: H[Aib]DGTFISDYK([γGlu-Decanoyl])T[Aib]LDNLAARDFINWLIQTKITD-OH
modifications: N-terminus assumed
SMILES: CCCCCCCCCC(=O)N[C@@H](CCC(=O)NCCCC[C@H](NC(=O)[C@H](Cc1ccc(O)cc1)NC(=O)[C@H](CC(=O)O)NC(=O)[C@H](CO)NC(=O)[C@@H](NC(=O)[C@H](Cc1ccccc1)NC(=O)[C@@H](NC(=O)CNC(=O)[C@H](CC(=O)O)NC(=O)C(C)(C)NC(=O)[C@@H](N)Cc1c[nH]cn1)[C@@H](C)O)[C@@H](C)CC)C(=O)N[C@H](C(=O)NC(C)(C)C(=O)N[C@@H](CC(C)C)C(=O)N[C@@H](CC(=O)O)C(=O)N[C@@H](CC(N)=O)C(=O)N[C@@H](CC(C)C)C(=O)N[C@@H](C)C(=O)N[C@@H](C)C(=O)N[C@@H](CCCNC(=N)N)C(=O)N[C@@H](CC(=O)O)C(=O)N[C@@H](Cc1ccccc1)C(=O)N[C@H](C(=O)N[C@@H](CC(N)=O)C(=O)N[C@@H](Cc1c[nH]c2ccccc12)C(=O)N[C@@H](CC(C)C)C(=O)N[C@H](C(=O)N[C@@H](CCC(N)=O)C(=O)N[C@H](C(=O)N[C@@H](CCCCN)C(=O)N[C@H](C(=O)N[C@H](C(=O)N[C@@H](CC(=O)O)C(=O)O)[C@@H](C)O)[C@@H](C)CC)[C@@H](C)O)[C@@H](C)CC)[C@@H](C)CC)[C@@H](C)O)C(=O)O
B2: Compound no. 5 (peptide)
peptide: Palmitoyl-H[Aib]DGTFISDYST[Aib]LDNLAARDFINWLIQTKITK-OH
SMILES: CCCCCCCCCCCCCCCC(=O)N[C@@H](Cc1c[nH]cn1)C(=O)NC(C)(C)C(=O)N[C@@H](CC(=O)O)C(=O)NCC(=O)N[C@H](C(=O)N[C@@H](Cc1ccccc1)C(=O)N[C@H](C(=O)N[C@@H](CO)C(=O)N[C@@H](CC(=O)O)C(=O)N[C@@H](Cc1ccc(O)cc1)C(=O)N[C@@H](CO)C(=O)N[C@H](C(=O)NC(C)(C)C(=O)N[C@@H](CC(C)C)C(=O)N[C@@H](CC(=O)O)C(=O)N[C@@H](CC(N)=O)C(=O)N[C@@H](CC(C)C)C(=O)N[C@@H](C)C(=O)N[C@@H](C)C(=O)N[C@@H](CCCNC(=N)N)C(=O)N[C@@H](CC(=O)O)C(=O)N[C@@H](Cc1ccccc1)C(=O)N[C@H](C(=O)N[C@@H](CC(N)=O)C(=O)N[C@@H](Cc1c[nH]c2ccccc12)C(=O)N[C@@H](CC(C)C)C(=O)N[C@H](C(=O)N[C@@H](CCC(N)=O)C(=O)N[C@H](C(=O)N[C@@H](CCCCN)C(=O)N[C@H](C(=O)N[C@H](C(=O)N[C@@H](CCCCN)C(=O)O)[C@@H](C)O)[C@@H](C)CC)[C@@H](C)O)[C@@H](C)CC)[C@@H](C)CC)[C@@H](C)O)[C@@H](C)CC)[C@@H](C)O
B3: Compound no. 11 (peptide)
peptide: HXDGTFISDYKTILDNLAARDFINWLIQTKITK
modifications: Aib at 2; K(γGlu-C16) at 11; C-terminal -OH
B4: Compound no. 9 (peptide)
peptide: H-H[Aib]DGK([γGlu-Palmitoyl])FISDYSTILDNLAARDFINWLIQTKITK-OH
SMILES: CCCCCCCCCCCCCCCC(=O)N[C@@H](CCC(=O)NCCCC[C@H](NC(=O)CNC(=O)[C@H](CC(=O)O)NC(=O)C(C)(C)NC(=O)[C@@H](N)Cc1c[nH]cn1)C(=O)N[C@@H](Cc1ccccc1)C(=O)N[C@H](C(=O)N[C@@H](CO)C(=O)N[C@@H](CC(=O)O)C(=O)N[C@@H](Cc1ccc(O)cc1)C(=O)N[C@@H](CO)C(=O)N[C@H](C(=O)N[C@H](C(=O)N[C@@H](CC(C)C)C(=O)N[C@@H](CC(=O)O)C(=O)N[C@@H](CC(N)=O)C(=O)N[C@@H](CC(C)C)C(=O)N[C@@H](C)C(=O)N[C@@H](C)C(=O)N[C@@H](CCCNC(=N)N)C(=O)N[C@@H](CC(=O)O)C(=O)N[C@@H](Cc1ccccc1)C(=O)N[C@H](C(=O)N[C@@H](CC(N)=O)C(=O)N[C@@H](Cc1c[nH]c2ccccc12)C(=O)N[C@@H](CC(C)C)C(=O)N[C@H](C(=O)N[C@@H](CCC(N)=O)C(=O)N[C@H](C(=O)N[C@@H](CCCCN)C(=O)N[C@H](C(=O)N[C@H](C(=O)N[C@@H](CCCCN)C(=O)O)[C@@H](C)O)[C@@H](C)CC)[C@@H](C)O)[C@@H](C)CC)[C@@H](C)CC)[C@@H](C)CC)[C@@H](C)O)[C@@H](C)CC)C(=O)O
B5: Compound no. 6 (peptide)
peptide: Palmitoyl-H[Aib]DGTFISDYSTILD[Aib]LAARDFINWLIQTKITK-OH
SMILES: CCCCCCCCCCCCCCCC(=O)N[C@@H](Cc1c[nH]cn1)C(=O)NC(C)(C)C(=O)N[C@@H](CC(=O)O)C(=O)NCC(=O)N[C@H](C(=O)N[C@@H](Cc1ccccc1)C(=O)N[C@H](C(=O)N[C@@H](CO)C(=O)N[C@@H](CC(=O)O)C(=O)N[C@@H](Cc1ccc(O)cc1)C(=O)N[C@@H](CO)C(=O)N[C@H](C(=O)N[C@H](C(=O)N[C@@H](CC(C)C)C(=O)N[C@@H](CC(=O)O)C(=O)NC(C)(C)C(=O)N[C@@H](CC(C)C)C(=O)N[C@@H](C)C(=O)N[C@@H](C)C(=O)N[C@@H](CCCNC(=N)N)C(=O)N[C@@H](CC(=O)O)C(=O)N[C@@H](Cc1ccccc1)C(=O)N[C@H](C(=O)N[C@@H](CC(N)=O)C(=O)N[C@@H](Cc1c[nH]c2ccccc12)C(=O)N[C@@H](CC(C)C)C(=O)N[C@H](C(=O)N[C@@H](CCC(N)=O)C(=O)N[C@H](C(=O)N[C@@H](CCCCN)C(=O)N[C@H](C(=O)N[C@H](C(=O)N[C@@H](CCCCN)C(=O)O)[C@@H](C)O)[C@@H](C)CC)[C@@H](C)O)[C@@H](C)CC)[C@@H](C)CC)[C@@H](C)CC)[C@@H](C)O)[C@@H](C)CC)[C@@H](C)O
B6: Compound no. 10 (peptide)
peptide: H-H[Aib]DGTFK([γGlu-Palmitoyl])SDYSTILDNLAARDFINWLIQTKITK-OH
SMILES: CCCCCCCCCCCCCCCC(=O)N[C@@H](CCC(=O)NCCCC[C@H](NC(=O)[C@H](Cc1ccccc1)NC(=O)[C@@H](NC(=O)CNC(=O)[C@H](CC(=O)O)NC(=O)C(C)(C)NC(=O)[C@@H](N)Cc1c[nH]cn1)[C@@H](C)O)C(=O)N[C@@H](CO)C(=O)N[C@@H](CC(=O)O)C(=O)N[C@@H](Cc1ccc(O)cc1)C(=O)N[C@@H](CO)C(=O)N[C@H](C(=O)N[C@H](C(=O)N[C@@H](CC(C)C)C(=O)N[C@@H](CC(=O)O)C(=O)N[C@@H](CC(N)=O)C(=O)N[C@@H](CC(C)C)C(=O)N[C@@H](C)C(=O)N[C@@H](C)C(=O)N[C@@H](CCCNC(=N)N)C(=O)N[C@@H](CC(=O)O)C(=O)N[C@@H](Cc1ccccc1)C(=O)N[C@H](C(=O)N[C@@H](CC(N)=O)C(=O)N[C@@H](Cc1c[nH]c2ccccc12)C(=O)N[C@@H](CC(C)C)C(=O)N[C@H](C(=O)N[C@@H](CCC(N)=O)C(=O)N[C@H](C(=O)N[C@@H](CCCCN)C(=O)N[C@H](C(=O)N[C@H](C(=O)N[C@@H](CCCCN)C(=O)O)[C@@H](C)O)[C@@H](C)CC)[C@@H](C)O)[C@@H](C)CC)[C@@H](C)CC)[C@@H](C)CC)[C@@H](C)O)C(=O)O
B7: Compound no. 43 (peptide)
peptide: {C16 diacid}-H[Aib]EGTFISDYST[Aib]LDNLAAKDFINWLIQTKITKNDWKHNITQ-OH
B8: Compound no. 13 (peptide)
peptide: H-H[Aib]DGTFISDYSTILK([γGlu-Palmitoyl])NLAARDFINWLIQTKITK-OH
SMILES: CCCCCCCCCCCCCCCC(=O)N[C@@H](CCC(=O)NCCCC[C@H](NC(=O)[C@H](CC(C)C)NC(=O)[C@@H](NC(=O)[C@@H](NC(=O)[C@H](CO)NC(=O)[C@H](Cc1ccc(O)cc1)NC(=O)[C@H](CC(=O)O)NC(=O)[C@H](CO)NC(=O)[C@@H](NC(=O)[C@H](Cc1ccccc1)NC(=O)[C@@H](NC(=O)CNC(=O)[C@H](CC(=O)O)NC(=O)C(C)(C)NC(=O)[C@@H](N)Cc1c[nH]cn1)[C@@H](C)O)[C@@H](C)CC)[C@@H](C)O)[C@@H](C)CC)C(=O)N[C@@H](CC(N)=O)C(=O)N[C@@H](CC(C)C)C(=O)N[C@@H](C)C(=O)N[C@@H](C)C(=O)N[C@@H](CCCNC(=N)N)C(=O)N[C@@H](CC(=O)O)C(=O)N[C@@H](Cc1ccccc1)C(=O)N[C@H](C(=O)N[C@@H](CC(N)=O)C(=O)N[C@@H](Cc1c[nH]c2ccccc12)C(=O)N[C@@H](CC(C)C)C(=O)N[C@H](C(=O)N[C@@H](CCC(N)=O)C(=O)N[C@H](C(=O)N[C@@H](CCCCN)C(=O)N[C@H](C(=O)N[C@H](C(=O)N[C@@H](CCCCN)C(=O)O)[C@@H](C)O)[C@@H](C)CC)[C@@H](C)O)[C@@H](C)CC)[C@@H](C)CC)C(=O)O

Assays:
[1] = target: T1, human glucagon-like peptide-2 receptor; test: cell-based or functional assay
[2] = target: T2, human glucose-dependent insulinotropic …; test: cell-based or functional assay

Binder	Efficacy GLP-2R [1]	logEC50 GLP-2R [1]	Efficacy GIPR [2]
B1	81%		
B2	109%	9	111%
B3	87%		115%
B4	91%		110%
B5	91%		108%
B6	23%		102%
B7	73%		
B8	95%		95%
